Laboratory results published in paper PMC10786891, “Massively parallel profiling of RNA-targeting CRISPR-Cas13d”.

T1: EsCas13d, nuclease-dead (Eubacterium siraeum, UniProt B0MS50, R295A;H300A;R849A;H854A)
T1 sequence: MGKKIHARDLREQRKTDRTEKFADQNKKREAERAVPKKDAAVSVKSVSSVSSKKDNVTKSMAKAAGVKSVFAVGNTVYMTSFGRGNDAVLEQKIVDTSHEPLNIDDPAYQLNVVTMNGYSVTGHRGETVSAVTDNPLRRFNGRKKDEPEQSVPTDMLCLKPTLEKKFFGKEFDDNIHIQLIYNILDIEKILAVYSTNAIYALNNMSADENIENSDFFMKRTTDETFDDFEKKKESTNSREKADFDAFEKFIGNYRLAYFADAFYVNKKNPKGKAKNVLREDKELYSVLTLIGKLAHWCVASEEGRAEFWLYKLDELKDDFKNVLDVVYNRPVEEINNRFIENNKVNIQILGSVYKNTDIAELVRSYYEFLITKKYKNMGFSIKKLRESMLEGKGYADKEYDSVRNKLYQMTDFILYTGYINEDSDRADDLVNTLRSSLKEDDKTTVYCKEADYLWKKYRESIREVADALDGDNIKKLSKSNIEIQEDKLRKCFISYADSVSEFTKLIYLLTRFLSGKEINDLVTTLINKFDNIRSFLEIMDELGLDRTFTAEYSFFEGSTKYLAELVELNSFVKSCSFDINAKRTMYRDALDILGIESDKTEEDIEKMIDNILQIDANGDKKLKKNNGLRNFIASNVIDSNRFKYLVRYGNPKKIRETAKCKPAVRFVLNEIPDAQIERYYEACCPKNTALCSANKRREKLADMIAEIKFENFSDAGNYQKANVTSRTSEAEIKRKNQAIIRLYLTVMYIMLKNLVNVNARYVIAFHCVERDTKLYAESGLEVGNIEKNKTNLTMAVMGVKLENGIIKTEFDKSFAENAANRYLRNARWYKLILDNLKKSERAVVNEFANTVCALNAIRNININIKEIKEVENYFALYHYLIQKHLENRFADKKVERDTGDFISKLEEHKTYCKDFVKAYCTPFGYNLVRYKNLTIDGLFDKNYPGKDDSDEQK


Molecular target: T1, EsCas13d, nuclease-dead
Experiment: crRNA (strand 1, pre-loaded); Mg2+; 40 mM Tris-HCl pH 7.5, 150 mM NaCl, 6 mM MgCl2, 1 mM DTT, 0.1% Tween-20, 0.2 mg/ml BSA; 25 C; 10 min per concentration, then washed
Conditions: tags: His6-TwinStrep-SUMO cleaved; N-terminal SNAP kept (SNAP-Surface 488); label: 3' end held by stalled T7 RNA polymerase

| Binder | Kd |
| --- | --- |
| target 3 U22C (mixed) RNA 1: CACCCGUGCAAAAUUGCAGGGGUCUAAAACGACCUGAAUAUUUCAGAUCAAA RNA 2: GGGAAUGGAUCCACAUCUACGAAUUCGUUCUUGAUCUGAAAUAUUCAGGUCUGCAGAUCGGAAGAGCACACGU | 13.8 ± 1.8 nM |
| target 3 U8C,A9G (mixed) RNA 1: CACCCGUGCAAAAUUGCAGGGGUCUAAAACGACCUGAAUAUUUCAGAUCAAA RNA 2: GGGAAUGGAUCCACAUCUACGAAUUCGUUUUUGAUCUGAAAUGCUCAGGUCUGCAGAUCGGAAGAGCACACGU | 77 ± 15.5 nM |
| target 3 insC 3' of 18,insA 3' of 17 (mixed) RNA 1: CACCCGUGCAAAAUUGCAGGGGUCUAAAACGACCUGAAUAUUUCAGAUCAAA RNA 2: GGGAAUGGAUCCACAUCUACGAAUUCGUUUUUGACUACUGAAAUAUUCAGGUCUGCAGAUCGGAAGAGCACACGU | 34.5 ± 11 nM |
| target 3 C1G,U22C (mixed) RNA 1: CACCCGUGCAAAAUUGCAGGGGUCUAAAACGACCUGAAUAUUUCAGAUCAAA RNA 2: GGGAAUGGAUCCACAUCUACGAAUUCGUUCUUGAUCUGAAAUAUUCAGGUGUGCAGAUCGGAAGAGCACACGU | 41 ± 8 nM |
| target 3 insC 3' of 4,insG 3' of 2 (mixed) RNA 1: CACCCGUGCAAAAUUGCAGGGGUCUAAAACGACCUGAAUAUUUCAGAUCAAA RNA 2: GGGAAUGGAUCCACAUCUACGAAUUCGUUUUUGAUCUGAAAUAUUCAGCGUGCUGCAGAUCGGAAGAGCACACGU | 50.5 ± 9.5 nM |
| target 3 insA 3' of 6,insC 3' of 4 (mixed) RNA 1: CACCCGUGCAAAAUUGCAGGGGUCUAAAACGACCUGAAUAUUUCAGAUCAAA RNA 2: GGGAAUGGAUCCACAUCUACGAAUUCGUUUUUGAUCUGAAAUAUUCAAGCGUCUGCAGAUCGGAAGAGCACACGU | 8.4 ± 0.95 nM |
| target 3 insU 3' of 16,insU 3' of 1 (mixed) RNA 1: CACCCGUGCAAAAUUGCAGGGGUCUAAAACGACCUGAAUAUUUCAGAUCAAA RNA 2: GGGAAUGGAUCCACAUCUACGAAUUCGUUUUUGAUCUUGAAAUAUUCAGGUCUUGCAGAUCGGAAGAGCACACGU | 39.5 ± 6.5 nM |
| target 3 del4,del5 (mixed) RNA 1: CACCCGUGCAAAAUUGCAGGGGUCUAAAACGACCUGAAUAUUUCAGAUCAAA RNA 2: GGGAAUGGAUCCACAUCUACGAAUUCGUUUUUGAUCUGAAAUAUUCGUCUGCAGAUCGGAAGAGCACACGU | 24.6 ± 2.15 nM |
| target 3 C1G,A12G (mixed) RNA 1: CACCCGUGCAAAAUUGCAGGGGUCUAAAACGACCUGAAUAUUUCAGAUCAAA RNA 2: GGGAAUGGAUCCACAUCUACGAAUUCGUUUUUGAUCUGAGAUAUUCAGGUGUGCAGAUCGGAAGAGCACACGU | 50 ± 9 nM |
| target 3 A5U,C6U (mixed) RNA 1: CACCCGUGCAAAAUUGCAGGGGUCUAAAACGACCUGAAUAUUUCAGAUCAAA RNA 2: GGGAAUGGAUCCACAUCUACGAAUUCGUUUUUGAUCUGAAAUAUUUUGGUCUGCAGAUCGGAAGAGCACACGU | 48 ± 6 nM |
| target 3 U2A,U8C (mixed) RNA 1: CACCCGUGCAAAAUUGCAGGGGUCUAAAACGACCUGAAUAUUUCAGAUCAAA RNA 2: GGGAAUGGAUCCACAUCUACGAAUUCGUUUUUGAUCUGAAAUACUCAGGACUGCAGAUCGGAAGAGCACACGU | 44.5 ± 6 nM |
| target 3 insU 3' of 13,insA 3' of 2 (mixed) RNA 1: CACCCGUGCAAAAUUGCAGGGGUCUAAAACGACCUGAAUAUUUCAGAUCAAA RNA 2: GGGAAUGGAUCCACAUCUACGAAUUCGUUUUUGAUCUGAUAAUAUUCAGGUACUGCAGAUCGGAAGAGCACACGU | 74 ± 17.5 nM |
| target 3 insA 3' of 2 (mixed) RNA 1: CACCCGUGCAAAAUUGCAGGGGUCUAAAACGACCUGAAUAUUUCAGAUCAAA RNA 2: GGGAAUGGAUCCACAUCUACGAAUUCGUUUUUGAUCUGAAAUAUUCAGGUACUGCAGAUCGGAAGAGCACACGU | 30.2 ± 2.55 nM |
| target 3 insG 3' of 2,insC 3' of 2 (mixed) RNA 1: CACCCGUGCAAAAUUGCAGGGGUCUAAAACGACCUGAAUAUUUCAGAUCAAA RNA 2: GGGAAUGGAUCCACAUCUACGAAUUCGUUUUUGAUCUGAAAUAUUCAGGUGCCUGCAGAUCGGAAGAGCACACGU | 68.5 ± 10.5 nM |
| target 3 insU 3' of 16,insU 3' of 3 (mixed) RNA 1: CACCCGUGCAAAAUUGCAGGGGUCUAAAACGACCUGAAUAUUUCAGAUCAAA RNA 2: GGGAAUGGAUCCACAUCUACGAAUUCGUUUUUGAUCUUGAAAUAUUCAGGUUCUGCAGAUCGGAAGAGCACACGU | 29 ± 5 nM |
| target 3 G4A,U8G (mixed) RNA 1: CACCCGUGCAAAAUUGCAGGGGUCUAAAACGACCUGAAUAUUUCAGAUCAAA RNA 2: GGGAAUGGAUCCACAUCUACGAAUUCGUUUUUGAUCUGAAAUAGUCAAGUCUGCAGAUCGGAAGAGCACACGU | 77.5 ± 21 nM |
| target 3 insC 3' of 22,insU 3' of 6 (mixed) RNA 1: CACCCGUGCAAAAUUGCAGGGGUCUAAAACGACCUGAAUAUUUCAGAUCAAA RNA 2: GGGAAUGGAUCCACAUCUACGAAUUCGUUUCUUGAUCUGAAAUAUUCUAGGUCUGCAGAUCGGAAGAGCACACGU | 29.6 ± 2.7 nM |
| target 3 U2A,A18G (mixed) RNA 1: CACCCGUGCAAAAUUGCAGGGGUCUAAAACGACCUGAAUAUUUCAGAUCAAA RNA 2: GGGAAUGGAUCCACAUCUACGAAUUCGUUUUUGGUCUGAAAUAUUCAGGACUGCAGAUCGGAAGAGCACACGU | 55.5 ± 7.5 nM |
| target 3 insU 3' of 9,insC 3' of 8 (mixed) RNA 1: CACCCGUGCAAAAUUGCAGGGGUCUAAAACGACCUGAAUAUUUCAGAUCAAA RNA 2: GGGAAUGGAUCCACAUCUACGAAUUCGUUUUUGAUCUGAAAUAUUCUCAGGUCUGCAGAUCGGAAGAGCACACGU | 81.5 ± 13 nM |
| target 3 G4A,A11G (mixed) RNA 1: CACCCGUGCAAAAUUGCAGGGGUCUAAAACGACCUGAAUAUUUCAGAUCAAA RNA 2: GGGAAUGGAUCCACAUCUACGAAUUCGUUUUUGAUCUGAAGUAUUCAAGUCUGCAGAUCGGAAGAGCACACGU | 36 ± 5 nM |
| target 3 insC 3' of 22,insA 3' of 21 (mixed) RNA 1: CACCCGUGCAAAAUUGCAGGGGUCUAAAACGACCUGAAUAUUUCAGAUCAAA RNA 2: GGGAAUGGAUCCACAUCUACGAAUUCGUUUCUAUGAUCUGAAAUAUUCAGGUCUGCAGAUCGGAAGAGCACACGU | 43 ± 5 nM |
| target 3 C1U,A12C (mixed) RNA 1: CACCCGUGCAAAAUUGCAGGGGUCUAAAACGACCUGAAUAUUUCAGAUCAAA RNA 2: GGGAAUGGAUCCACAUCUACGAAUUCGUUUUUGAUCUGACAUAUUCAGGUUUGCAGAUCGGAAGAGCACACGU | 86.5 ± 17 nM |
| target 3 del6,del9 (mixed) RNA 1: CACCCGUGCAAAAUUGCAGGGGUCUAAAACGACCUGAAUAUUUCAGAUCAAA RNA 2: GGGAAUGGAUCCACAUCUACGAAUUCGUUUUUGAUCUGAAAUUUAGGUCUGCAGAUCGGAAGAGCACACGU | 120 ± 24 nM |
| target 3 insG 3' of 9,insC 3' of 8 (mixed) RNA 1: CACCCGUGCAAAAUUGCAGGGGUCUAAAACGACCUGAAUAUUUCAGAUCAAA RNA 2: GGGAAUGGAUCCACAUCUACGAAUUCGUUUUUGAUCUGAAAUAGUCUCAGGUCUGCAGAUCGGAAGAGCACACGU | 90 ± 16.5 nM |
| target 1 insA 3' of 10,insA 3' of 6 (mixed) RNA 1: CACCCGUGCAAAAAUGCAGGGGUCUAAAACUGAGCGGAUAACCUCUCUAUGG RNA 2: GGGAAUGGAUCCACAUCUACGAAUUCGUACCAUAGAGAGGUUAAUCCAGCUCACCGAGAUCGGAAGAGCACACGU | 11.1 ± 0.7 nM |
| target 1 A1U,C4U (mixed) RNA 1: CACCCGUGCAAAAAUGCAGGGGUCUAAAACUGAGCGGAUAACCUCUCUAUGG RNA 2: GGGAAUGGAUCCACAUCUACGAAUUCGUACCAUAGAGAGGUUAUCCGUUCUCCGAGAUCGGAAGAGCACACGU | 13 ± 1.7 nM |
| target 1 A1U,C6G (mixed) RNA 1: CACCCGUGCAAAAAUGCAGGGGUCUAAAACUGAGCGGAUAACCUCUCUAUGG RNA 2: GGGAAUGGAUCCACAUCUACGAAUUCGUACCAUAGAGAGGUUAUCGGCUCUCCGAGAUCGGAAGAGCACACGU | 12.1 ± 0.9 nM |
| target 1 U10G,U11G (mixed) RNA 1: CACCCGUGCAAAAAUGCAGGGGUCUAAAACUGAGCGGAUAACCUCUCUAUGG RNA 2: GGGAAUGGAUCCACAUCUACGAAUUCGUACCAUAGAGAGGGGAUCCGCUCACCGAGAUCGGAAGAGCACACGU | 32.7 ± 2.9 nM |
